# T1: GST-RPN10 (residues 201–386), wild type (Arabidopsis thaliana, UniProt P55034 201-386)
# T1 sequence (looked up): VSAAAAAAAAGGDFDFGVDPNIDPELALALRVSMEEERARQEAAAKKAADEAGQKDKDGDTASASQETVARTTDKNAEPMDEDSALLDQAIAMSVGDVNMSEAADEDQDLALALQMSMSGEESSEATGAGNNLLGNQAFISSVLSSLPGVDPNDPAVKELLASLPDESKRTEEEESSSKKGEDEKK
# Experiments:
# [1] = biological target: T1, GST-RPN10 (residues 201–386), wild type; assay: pull-down
# [2] = biological target: T1, GST-RPN10 (residues 201–386), wild type; assay: pull-down; remark: listed apart in the source
binding result [1],Kd [2] [µM],Binder
binds,–,"His6-ATG8f (natural protein, Arabidopsis thaliana, UniProt Q8VYK7 1-117, looked up) MAKSSFKQEHDLEKRRAEAARIREKYPDRIPVIVEKAEKSDIPTIDKKKYLVPADLTVGQFVYVIRKRIKLSAEKAIFIFVDNVLPPAGALMSSVYEEKKDDDGFLYVTYSGENTFG"
–,~5.6,"His6-ATG8e (natural protein, Arabidopsis thaliana, UniProt Q8S926 1-118, looked up) MNKGSIFKMDNDFEKRKAEAGRIREKYPDRIPVIVEKAEKSEVPNIDKKKYLVPSDLTVGQFVYVIRKRIKLSAEKAIFIFVDNVLPPTGELMSSVYEDKKDEDGFLYITYSGENTFG"

# Source: PMC4903074 (Molecular cell, 2015)
